The record followed here is the supplement of paper PMC10201428.

Sequences and labels used below:
B1: library; a variant is named by its letters at N, in order (parent)
chain: AATGTTGTTGATGCAACCATAAAGTGATATTTAATAATTATTTATAATCAGCAACTTAACCACAAAACAACCATATATTGATATNTCACAAAACAACCATAANTTGATATTTTTGTGAATCGAGTATTTCAGCAAAACTACTGCAGTAAGAA

Variants of B1 are the subject of series [1]. The series is described as follows: relative integration efficiency (T-LR orientation) vs wild-type transposon end (log2 (normalized fold change)); transposon end mutated: left end; higher = more efficient transposition. The settings on record: with VchCAST RNA-guided transposition machinery (E. coli BL21(DE3) host, lacZ target). On the procedure:
(§1)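 Pooled, barcoded VchCAST (Tn6677) mini-transposon donor libraries; each variable transposon-end sequence sits in a fixed pDonor mini-transposon context (10-bp barcode and cargo not included). Left- or right-end libraries were co-transformed with pEffector (TniQ-Cascade, TnsABC, lacZ crRNA, T7, 0.1 mM IPTG) into E. coli BL21(DE3) and grown 18 h at 37 C. T-LR and T-RL junction amplicons were sequenced; output/input barcode fold change was normalised to the mean of four wild-type barcodes and log2-transformed. Two biological replicates; zero-count/undetected variants carry floor values (-10 / -15), censored here. Barcode uncoupling by PCR recombination adds noise.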

Variants of B1 are the subject of series [2]. As to the kind of experiment: relative integration efficiency (T-RL orientation) vs wild-type transposon end (log2 (normalized fold change)); transposon end mutated: left end; higher = more efficient transposition. The note with it: with VchCAST RNA-guided transposition machinery (E. coli BL21(DE3) host, lacZ target). How it is done:
as §1

± gives the standard deviation of the averaged measurements.

For the variant AATGTTGTTGATGCACCCATAAATTGATAATTAATAATTATTTATAATCAGCAACTTAACCACAAAACACCCATAAATTGATATTGCACAAAACAACCATAAAGTGATATTTATGTGAATCGAGTATTTCAGCAAAACTACTGCAGTAAGAA [TA A16C G24T T30A A70C T76A T86G T104G T113A], the entries for the “relative integration efficiency (log2)” value in series [1] and in series [2] were -0.388 ± 0.33 and -0.652 ± 0.39, respectively.

As to AATGTTGTTGATGCACCCATAAATTGATAATTAATAATTATTTATAATCAGCAACTTAACCACAAAACAACCATATATTGATATCTCACAAAACACCCATAAATTGATAATTATGTGAATCGAGTATTTCAGCAAAACTACTGCAGTAAGAA [CA A16C G24T T30A A96C T110A T113A], the “relative integration efficiency (log2)” value in series [1] is -0.499 ± 0.66; in series [2], -0.208 ± 0.19.

For the variant AATGTTGTTGATGCACCCATAAATTGATAATTAATAATTATTTATAATCAGCAACTTAACCACAAAACAACCATAAGTTGATATTTTACAAAACACCCATAAATTGATATTGCTGTGAATCGAGTATTTCAGCAAAACTACTGCAGTAAGAA [TA A16C G24T T30A T76A A77G C87T A96C T112G T113C], the results for the “relative integration efficiency (log2)” value in series [1] and in series [2] were 0.0498 ± 0.26 and -0.0655 ± 0.56, respectively.

As for AATGTTGTTGATGCACCCATAAATTGATAATTAATAATTATTTATAATCAGCAACTTAACCACAAAACACCCATAAATTGATAATTAACAAAACAACCATAAAATGATAATTATGTGAATCGAGTATTTCAGCAAAACTACTGCAGTAAGAA [TA A16C G24T T30A A70C T76A T84A C87A T104A T110A T113A], the “relative integration efficiency (log2)” value in series [1] is -0.0907 ± 0.0099; in series [2], 0.0016 ± 0.4.

AATGTTGTTGATGCACCCATAAATTGATAATTAATAATTATTTATAATCAGCAACTTAACCACAAAACACCCATAAATTGATATTGCACAAAACAACCATATATTGATATCTCTGTGAATCGAGTATTTCAGCAAAACTACTGCAGTAAGAA [TA A16C G24T T30A A70C T76A T86G A102T T111C T113C]: the “relative integration efficiency (log2)” value in series [1] was -0.48 ± 1.4; in series [2] it was -0.134 ± 0.32.

With AATGTTGTTGATGCACCCATAAATTGATAATTAATAATTATTTATAATCAGCAACTTAACCACAAAACACCCATAAATTGATAATTAACAAAACACCCATAAATTGATAATTATGTGAATCGAGTATTTCAGCAAAACTACTGCAGTAAGAA [TA A16C G24T T30A A70C T76A T84A C87A A96C T110A T113A], the “relative integration efficiency (log2)” value in series [1] is -0.489 ± 0.47; in series [2] it was -0.00649 ± 0.34.

As for AATGTTGTTGATGCACCCATAAATTGATAATTAATAATTATTTATAATCAGCAACTTAACCACAAAACACCCATAAATTGATAATTAACAAAACAACCATAAAGTGATATTTATGTGAATCGAGTATTTCAGCAAAACTACTGCAGTAAGAA [TA A16C G24T T30A A70C T76A T84A C87A T104G T113A], the “relative integration efficiency (log2)” value was 0.223 ± 0.78 in series [1] and -0.109 ± 0.46 in series [2].

As to AATGTTGTTGATGCACCCATAAATTGATAATTAATAATTATTTATAATCAGCAACTTAACCACAAAACACCCATAAATTGATAATTAACAAAACACCCATAAATTGATATTGCTGTGAATCGAGTATTTCAGCAAAACTACTGCAGTAAGAA [TA A16C G24T T30A A70C T76A T84A C87A A96C T112G T113C], the “relative integration efficiency (log2)” value in series [1] is -0.489 ± 0.88; in series [2], 0.259 ± 0.14.

Consider AATGTTGTTGATGCACCCATAAATTGATAATTAATAATTATTTATAATCAGCAACTTAACCACAAAACACCCATAAATTGATATTGCACAAAACACCCATAAATTGATATTGCTGTGAATCGAGTATTTCAGCAAAACTACTGCAGTAAGAA [TA A16C G24T T30A A70C T76A T86G A96C T112G T113C], for which the “relative integration efficiency (log2)” value is -0.394 ± 0.73 in series [1] and -0.421 ± 0.27 in series [2].

As to AATGTTGTTGATGCACCCATAAATTGATAATTAATAATTATTTATAATCAGCAACTTAACCACAAAACACCCATAAATTGATAATTAACAAAACAACCATATATTGATATCTCTGTGAATCGAGTATTTCAGCAAAACTACTGCAGTAAGAA [TA A16C G24T T30A A70C T76A T84A C87A A102T T111C T113C], the “relative integration efficiency (log2)” value in series [1] was -0.517 ± 1.4; in series [2], -0.107 ± 0.55.

On to AATGTTGTTGATGCACCCATAAATTGATAATTAATAATTATTTATAATCAGCAACTTAACCACAAAACAACCATAAGTTGATATTTTACAAAACAACCATATATTGATATCTCTGTGAATCGAGTATTTCAGCAAAACTACTGCAGTAAGAA [TA A16C G24T T30A T76A A77G C87T A102T T111C T113C], for which the “relative integration efficiency (log2)” value in series [1] was -1.05 ± 1.4; in series [2] it was -0.994 ± 0.46.

Consider AATGTTGTTGATGCACCCATAAATTGATAATTAATAATTATTTATAATCAGCAACTTAACCACAAAACAACCATATATTGATATCTCACAAAACACCCATAAATTGATATTGCTGTGAATCGAGTATTTCAGCAAAACTACTGCAGTAAGAA [CA A16C G24T T30A A96C T112G T113C], for which the “relative integration efficiency (log2)” value in series [1] was -0.699 ± 0.71; in series [2], -0.628 ± 0.18.

Regarding AATGTTGTTGATGCACCCATAAATTGATAATTAATAATTATTTATAATCAGCAACTTAACCACAAAACAACCATAAGTTGATATTTTACAAAACACCCATAAATTGATAATTATGTGAATCGAGTATTTCAGCAAAACTACTGCAGTAAGAA [TA A16C G24T T30A T76A A77G C87T A96C T110A T113A], the “relative integration efficiency (log2)” value in series [1] was 0.1 ± 1.2; in series [2], -0.0467 ± 0.48.

Turning to AATGTTGTTGATGCACCCATAAATTGATAATTAATAATTATTTATAATCAGCAACTTAACCACAAAACAACCATATATTGATATCTCACAAAACAACCATATATTGATATCTCTGTGAATCGAGTATTTCAGCAAAACTACTGCAGTAAGAA [CA A16C G24T T30A A102T T111C T113C], the figures for the “relative integration efficiency (log2)” value in series [1] and in series [2] were -0.907 ± 1 and -0.887 ± 0.57, respectively.

AATGTTGTTGATGCACCCATAAATTGATAATTAATAATTATTTATAATCAGCAACTTAACCACAAAACAACCATAAGTTGATATTTTACAAAACAACCATAAAGTGATATTTATGTGAATCGAGTATTTCAGCAAAACTACTGCAGTAAGAA [TA A16C G24T T30A T76A A77G C87T T104G T113A]: the entries for the “relative integration efficiency (log2)” value in series [1] and in series [2] were -0.204 ± 0.73 and -0.483 ± 0.46, respectively.

Regarding AATGTTGTTGATGCAACCATAAAGTGATATTTAATAATTATTTATAATCAGCAACTTAACCACAAAACAACCATATATTGATATCTCACAAAACAACCATAAATTGATATTTTTGTGAATCGAGTATTTCAGCAAAACTACTGCAGTAAGAA [CA], the figures for the “relative integration efficiency (log2)” value in series [1] and in series [2] were 0.637 ± 0.24 and 0.299 ± 0.068, respectively.

As for AATGTTGTTGATGCACCCATAAATTGATAATTAATAATTATTTATAATCAGCAACTTAACCACAAAACACCCATAAATTGATATTGCACAAAACACCCATAAATTGATAATTATGTGAATCGAGTATTTCAGCAAAACTACTGCAGTAAGAA [TA A16C G24T T30A A70C T76A T86G A96C T110A T113A], the figures for the “relative integration efficiency (log2)” value in series [1] and in series [2] were -0.0192 ± 0.24 and -0.213 ± 0.29, respectively.

AATGTTGTTGATGCACCCATAAATTGATAATTAATAATTATTTATAATCAGCAACTTAACCACAAAACAACCATAAGTTGATATTTTACAAAACAACCATAAAATGATAATTATGTGAATCGAGTATTTCAGCAAAACTACTGCAGTAAGAA [TA A16C G24T T30A T76A A77G C87T T104A T110A T113A]: the “relative integration efficiency (log2)” value in series [1] is -0.222 ± 0.22; in series [2], -0.901 ± 0.53.

Regarding AATGTTGTTGATGCACCCATAAATTGATAATTAATAATTATTTATAATCAGCAACTTAACCACAAAACACCCATAAATTGATATTGCACAAAACAACCATAAAATGATAATTATGTGAATCGAGTATTTCAGCAAAACTACTGCAGTAAGAA [TA A16C G24T T30A A70C T76A T86G T104A T110A T113A], the “relative integration efficiency (log2)” value in series [1] is -0.858 ± 0.25; in series [2] it was -0.764 ± 0.36.
